For 15 molecules, Kd results are on record in paper PMC9606946, “Programmed Aptamer Screening, Characterization, and Rapid Detection for α-Conotoxin MI”.

Changes are numbered by the printed parent chain. Values joined by “and” are separate entries in the source; they are usually repeats but may differ in a detail not shown here. Equal entries are not always repeated. Where no end group is shown, it is not given here.

The data set deals with T1, alpha-conotoxin MI (CTX-MI) (Conus magus, UniProt P01521 1-14, disulfide (positions not given here); not fully specified; also: two disulfides as in P01521).
T1 chain: GRCCHPACGKNYSC-NH2
The experiment in a line: BLI. The conditions noted are these: protein: commercial, tags: none, label: biotin.

B1: MBMI-94 (ssDNA)
DNA: ATTGGCACTCCACGCATAGGAGCGGGGTTGGTTTGCGGGAGGGGGGGTGGAGGTAAGCTCCCTATGCGTGCTACCGTGAA
By Kd is commonly meant the concentration at which binding is half-saturated. As for B1, binding was characterised by a dissociation constant (Kd) of 2330 nM.

B2: MBMI-01 (ssDNA)
DNA: ATTGGCACTCCACGCATAGGTTTGGGGATGGGCAACGGTAAAAAGGGTCAAAAGGCTTTTCCTATGCGTGCTACCGTGAA
Molecule B2 registered a Kd of 850 nM.

B3: MBMI-02c (ssDNA)
DNA: ATTTGGGTTTCGGGATAAGGGGCAAAAGGACAGGTTTTGT
B3 showed a Kd of 1290 nM.

B4: MBMI-51 (ssDNA)
DNA: ATTGGCACTCCACGCATAGGAAGGTGGAATCGGAGGGGGTGCTTGGGTGGGGGTGGGATTCCTATGCGTGCTACCGTGAA
With B4, binding was characterised by a dissociation constant (Kd) of 14000 nM.

B5: MBMI-01c (structured_DNA)
DNA: TTTGGGGATGGGCAACGGTAAAAAGGGTCAAAAGGCTTTT
In the case of B5, the Kd (antiparallel G-quadruplex) is 870 nM and 729 nM.

B6: M3 (ssDNA)
DNA: B5 DNA with G34C, G35C
Consider B6, for which, where the note is “remaining predicted GQ cores A,B”, the Kd was 1560 nM.

B7: M1 (ssDNA)
DNA: B5 DNA with G4C, G5C
B7: where the note is “remaining predicted GQ cores C,D”, the Kd was 1520 nM.

B8: MBMI-08 (ssDNA)
DNA: ATTGGCACTCCACGCATAGGCAACGGGGGGGTGGGGAGAGAAGGGTTGAGTGACAATTTGCCTATGCGTGCTACCGTGAA
In turn, B8 registered a Kd of 12000 nM.

B9: MBMI-02 (ssDNA)
DNA: ATTGGCACTCCACGCATAGGATTTGGGTTTCGGGATAAGGGGCAAAAGGACAGGTTTTGTCCTATGCGTGCTACCGTGAA
As to B9, the Kd came out at 2210 nM.

B10: MBMI-22 (ssDNA)
DNA: ATTGGCACTCCACGCATAGGCAAGAAGGGGGAGGGTGGTATGTGTCGGGGGGAGGGGTGGCCTATGCGTGCTACCGTGAA
B10 displayed a Kd of 21200 nM.

B11: M2 (ssDNA)
DNA: TTTGGCCATGGCCAACGGTAAAAAGGCTCAAAACCCTTTT
With B11, the Kd (remaining predicted GQ core A) was 741 nM.

B12: MBMI-39 (ssDNA)
DNA: ATTGGCACTCCACGCATAGGGTAGGGGATTTAAGGAGGGGCCTTAGGAGGGGGGGGGTAACCTATGCGTGCTACCGTGAA
B12: the affinity, expressed as Kd, was 430 nM.

B13: MBMI-03 (ssDNA)
DNA: ATTGGCACTCCACGCATAGGGGCGCTTGTGGTGTAAGGGTTGGGTATATGTCGTAATAGGCCTATGCGTGCTACCGTGAA
Regarding B13, the Kd was found to be 3490 nM.

B14: MBMI-92c (ssDNA)
DNA: CTCGCGGAGGGAGGGGTTTTGGGGGGCGGGATGGTATTGG
In turn, B14 showed a Kd of 1320 nM.

B15: MBMI-92 (ssDNA)
DNA: ATTGGCACTCCACGCATAGGCTCGCGGAGGGAGGGGTTTTGGGGGGCGGGATGGTATTGGCCTATGCGTGCTACCGTGAA
Turning to B15, the Kd came to 260 nM.
